# Results as given in paper PMC10286367.
# Experiments:
# [1] = WB of cytoplasmic and nuclear fractions; conditions: glycan lost; control: Ctrl astrocytes
# [2] = WB of total p65, cultured astrocytes; conditions: glycan lost; control: Ctrl astrocytes
# [3] = WB, cultured astrocytes; conditions: glycan lost; control: Ctrl astrocytes
# [4] = IP-WB in N2a cells; conditions: glycan lost; control: wild-type p65-HA
# [5] = HA IP-WB in N2a cells
protein,measurement,setting,value
NF-κB p65: Ogt cKO (protein) parent chain: MDDLFPLIFPSEPAQASGPYVEIIEQPKQRGMRFRYKCEGRSAGSIPGERSTDTTKTHPTIKINGYTGPGTVRISLVTKDPPHRPHPHELVGKDCRDGYYEADLCPDRSIHSFQNLGIQCVKKRDLEQAISQRIQTNNNPFHVPIEEQRGDYDLNAVRLCFQVTVRDPAGRPLLLTPVLSHPIFDNRAPNTAELKICRVNRNSGSCLGGDEIFLLCDKVQKEDIEVYFTGPGWEARGSFSQADVHRQVAIVFRTPPYADPSLQAPVRVSMQLRRPSDRELSEPMEFQYLPDTDDRHRIEEKRKRTYETFKSIMKKSPFNGPTEPRPPTRRIAVPTRNSTSVPKPAPQPYTFPASLSTINFDEFSPMLLPSGQISNQALALAPSSAPVLAQTMVPSSAMVPLAQPPAPAPVLTPGPPQSLSAPVPKSTQAGEGTLSEALLHLQFDADEDLGALLGNSTDPGVFTDLASVDNSEFQQLLNQGVSMSHSTAEPMLMEYPEAITRLVTGSQRPPDPAPTPLGTSGLPNGLSGDEDFSSIADMDFSALLSQISS,localisation_or_trafficking,[1],changes
same,expression_or_secretion,[2],no change
same,other: p65 phosphorylation (p-p65 level),[3],increases
NF-κB p65: S396A (protein) parent chain: MDDLFPLIFPSEPAQASGPYVEIIEQPKQRGMRFRYKCEGRSAGSIPGERSTDTTKTHPTIKINGYTGPGTVRISLVTKDPPHRPHPHELVGKDCRDGYYEADLCPDRSIHSFQNLGIQCVKKRDLEQAISQRIQTNNNPFHVPIEEQRGDYDLNAVRLCFQVTVRDPAGRPLLLTPVLSHPIFDNRAPNTAELKICRVNRNSGSCLGGDEIFLLCDKVQKEDIEVYFTGPGWEARGSFSQADVHRQVAIVFRTPPYADPSLQAPVRVSMQLRRPSDRELSEPMEFQYLPDTDDRHRIEEKRKRTYETFKSIMKKSPFNGPTEPRPPTRRIAVPTRNSTSVPKPAPQPYTFPASLSTINFDEFSPMLLPSGQISNQALALAPSSAPVLAQTMVPSSAMVPLAQPPAPAPVLTPGPPQSLSAPVPKSTQAGEGTLSEALLHLQFDADEDLGALLGNSTDPGVFTDLASVDNSEFQQLLNQGVSMSHSTAEPMLMEYPEAITRLVTGSQRPPDPAPTPLGTSGLPNGLSGDEDFSSIADMDFSALLSQISS,other: p65 phosphorylation (p-p65 level),[4],no change
NF-κB p65: S374A (protein) parent chain: MDDLFPLIFPSEPAQASGPYVEIIEQPKQRGMRFRYKCEGRSAGSIPGERSTDTTKTHPTIKINGYTGPGTVRISLVTKDPPHRPHPHELVGKDCRDGYYEADLCPDRSIHSFQNLGIQCVKKRDLEQAISQRIQTNNNPFHVPIEEQRGDYDLNAVRLCFQVTVRDPAGRPLLLTPVLSHPIFDNRAPNTAELKICRVNRNSGSCLGGDEIFLLCDKVQKEDIEVYFTGPGWEARGSFSQADVHRQVAIVFRTPPYADPSLQAPVRVSMQLRRPSDRELSEPMEFQYLPDTDDRHRIEEKRKRTYETFKSIMKKSPFNGPTEPRPPTRRIAVPTRNSTSVPKPAPQPYTFPASLSTINFDEFSPMLLPSGQISNQALALAPSSAPVLAQTMVPSSAMVPLAQPPAPAPVLTPGPPQSLSAPVPKSTQAGEGTLSEALLHLQFDADEDLGALLGNSTDPGVFTDLASVDNSEFQQLLNQGVSMSHSTAEPMLMEYPEAITRLVTGSQRPPDPAPTPLGTSGLPNGLSGDEDFSSIADMDFSALLSQISS,other: p65 phosphorylation (p-p65 level),[4],no change
NF-κB p65: Ogt KD (protein) parent chain: MDDLFPLIFPSEPAQASGPYVEIIEQPKQRGMRFRYKCEGRSAGSIPGERSTDTTKTHPTIKINGYTGPGTVRISLVTKDPPHRPHPHELVGKDCRDGYYEADLCPDRSIHSFQNLGIQCVKKRDLEQAISQRIQTNNNPFHVPIEEQRGDYDLNAVRLCFQVTVRDPAGRPLLLTPVLSHPIFDNRAPNTAELKICRVNRNSGSCLGGDEIFLLCDKVQKEDIEVYFTGPGWEARGSFSQADVHRQVAIVFRTPPYADPSLQAPVRVSMQLRRPSDRELSEPMEFQYLPDTDDRHRIEEKRKRTYETFKSIMKKSPFNGPTEPRPPTRRIAVPTRNSTSVPKPAPQPYTFPASLSTINFDEFSPMLLPSGQISNQALALAPSSAPVLAQTMVPSSAMVPLAQPPAPAPVLTPGPPQSLSAPVPKSTQAGEGTLSEALLHLQFDADEDLGALLGNSTDPGVFTDLASVDNSEFQQLLNQGVSMSHSTAEPMLMEYPEAITRLVTGSQRPPDPAPTPLGTSGLPNGLSGDEDFSSIADMDFSALLSQISS,other: p65 phosphorylation (p-p65 level),"[5]; glycan lost, control: control N2a cells",increases
NF-κB p65: OE-Ogt (protein) parent chain: MDDLFPLIFPSEPAQASGPYVEIIEQPKQRGMRFRYKCEGRSAGSIPGERSTDTTKTHPTIKINGYTGPGTVRISLVTKDPPHRPHPHELVGKDCRDGYYEADLCPDRSIHSFQNLGIQCVKKRDLEQAISQRIQTNNNPFHVPIEEQRGDYDLNAVRLCFQVTVRDPAGRPLLLTPVLSHPIFDNRAPNTAELKICRVNRNSGSCLGGDEIFLLCDKVQKEDIEVYFTGPGWEARGSFSQADVHRQVAIVFRTPPYADPSLQAPVRVSMQLRRPSDRELSEPMEFQYLPDTDDRHRIEEKRKRTYETFKSIMKKSPFNGPTEPRPPTRRIAVPTRNSTSVPKPAPQPYTFPASLSTINFDEFSPMLLPSGQISNQALALAPSSAPVLAQTMVPSSAMVPLAQPPAPAPVLTPGPPQSLSAPVPKSTQAGEGTLSEALLHLQFDADEDLGALLGNSTDPGVFTDLASVDNSEFQQLLNQGVSMSHSTAEPMLMEYPEAITRLVTGSQRPPDPAPTPLGTSGLPNGLSGDEDFSSIADMDFSALLSQISS,other: p65 phosphorylation (p-p65 level),"[5]; glycan gained, control: N2a cells without ectopic Ogt",decreases
NF-κB p65: S370A (protein) parent chain: MDDLFPLIFPSEPAQASGPYVEIIEQPKQRGMRFRYKCEGRSAGSIPGERSTDTTKTHPTIKINGYTGPGTVRISLVTKDPPHRPHPHELVGKDCRDGYYEADLCPDRSIHSFQNLGIQCVKKRDLEQAISQRIQTNNNPFHVPIEEQRGDYDLNAVRLCFQVTVRDPAGRPLLLTPVLSHPIFDNRAPNTAELKICRVNRNSGSCLGGDEIFLLCDKVQKEDIEVYFTGPGWEARGSFSQADVHRQVAIVFRTPPYADPSLQAPVRVSMQLRRPSDRELSEPMEFQYLPDTDDRHRIEEKRKRTYETFKSIMKKSPFNGPTEPRPPTRRIAVPTRNSTSVPKPAPQPYTFPASLSTINFDEFSPMLLPSGQISNQALALAPSSAPVLAQTMVPSSAMVPLAQPPAPAPVLTPGPPQSLSAPVPKSTQAGEGTLSEALLHLQFDADEDLGALLGNSTDPGVFTDLASVDNSEFQQLLNQGVSMSHSTAEPMLMEYPEAITRLVTGSQRPPDPAPTPLGTSGLPNGLSGDEDFSSIADMDFSALLSQISS,other: p65 phosphorylation (p-p65 level),[4],no change
NF-κB p65: S384A (protein) parent chain: MDDLFPLIFPSEPAQASGPYVEIIEQPKQRGMRFRYKCEGRSAGSIPGERSTDTTKTHPTIKINGYTGPGTVRISLVTKDPPHRPHPHELVGKDCRDGYYEADLCPDRSIHSFQNLGIQCVKKRDLEQAISQRIQTNNNPFHVPIEEQRGDYDLNAVRLCFQVTVRDPAGRPLLLTPVLSHPIFDNRAPNTAELKICRVNRNSGSCLGGDEIFLLCDKVQKEDIEVYFTGPGWEARGSFSQADVHRQVAIVFRTPPYADPSLQAPVRVSMQLRRPSDRELSEPMEFQYLPDTDDRHRIEEKRKRTYETFKSIMKKSPFNGPTEPRPPTRRIAVPTRNSTSVPKPAPQPYTFPASLSTINFDEFSPMLLPSGQISNQALALAPSSAPVLAQTMVPSSAMVPLAQPPAPAPVLTPGPPQSLSAPVPKSTQAGEGTLSEALLHLQFDADEDLGALLGNSTDPGVFTDLASVDNSEFQQLLNQGVSMSHSTAEPMLMEYPEAITRLVTGSQRPPDPAPTPLGTSGLPNGLSGDEDFSSIADMDFSALLSQISS,other: p65 phosphorylation (p-p65 level),[4],increases
